Data as given in patent US20200087662, “INHIBITION OF POLY(A) BINDING PROTEIN AND THE TREATMENT OF PAIN” (Board of Regents, The University of Texas System, published 2020).

Biological target: PABPC1 (residues 1-383) (Homo sapiens, UniProt P11940 P11940:1-383)
Experiment: FP; 50 mM HEPES, 5 mM EDTA, 250 mM KCl, 10 mM DTT, 0.5 mg/mL BSA, 0.05% Tween-20, yeast total RNA competitor
Conditions: label: Cy3 or 3' biotin
Protocol: Equilibrium dissociation constants were determined by florescence anisotropy measurements of either unmodified adenosine 12 nucleotide RNA or the Poly(A) SPOT-ON to recombinant human PABPC1 (residues 1-383). Binding reactions were conducted in 50 μL of buffer containing 50 mM HEPES, 5 mM EDTA, 250 mM KCl, 10 mM DTT, 0.5 mg/mL BSA, 0.05% Tween-20, 0.1 mg/mL yeast competitor total RNA (Ambion), and 0.5 nM Cy3-labeled RNA. Measurements were recorded on a Tecan Spark multimode plate reader in triplicate. Data were fit using Kalidagraph as described⁶³

Sequence of PABPC1 (residues 1-383) (P11940 1-383, one chain of several): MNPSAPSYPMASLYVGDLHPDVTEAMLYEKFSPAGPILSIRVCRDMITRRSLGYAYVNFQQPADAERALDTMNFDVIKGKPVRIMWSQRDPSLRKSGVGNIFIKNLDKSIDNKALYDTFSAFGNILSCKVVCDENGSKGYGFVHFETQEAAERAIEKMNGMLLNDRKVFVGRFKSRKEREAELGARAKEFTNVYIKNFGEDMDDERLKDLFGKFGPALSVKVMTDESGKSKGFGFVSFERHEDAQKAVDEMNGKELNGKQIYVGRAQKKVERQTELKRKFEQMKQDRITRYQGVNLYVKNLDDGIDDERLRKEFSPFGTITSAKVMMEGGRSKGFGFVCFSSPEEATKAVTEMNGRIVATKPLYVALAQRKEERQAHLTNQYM

AAAAAAAAAAAA (ssRNA, 2'-OMe at all riboses; PS at the 5'-most and 3'-most linkages) [Poly(A) SPOT-ON]
Kd: 301 nM
